In publication PMC6662825:

Target: Trx-NVL^167–216-(GS)3-eYFP (human) (UniProt O15381)
Test: MST; 50 nM Trx-NVL^167–216-(GS)3-eYFP with a 1:1 dilution series of unlabeled MTR4 KOW; 50 mM Hepes/NaOH pH 7.5, 150 mM NaCl, 5% glycerol, 0.5 mM TCEP; MST power 20%, LED power 20%; triplicates

Trx-NVL^167–216-(GS)3-eYFP (human), sequence (O15381 167-216): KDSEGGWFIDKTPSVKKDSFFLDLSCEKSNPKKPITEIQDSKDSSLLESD

B1: MTR4-KOW (domain or fragment)
chain: HKPKYCLPFLQPGRLVKVKNEGDDFGWGVVVNFSKKSNVKPNSGELDPLYVVEVLLRCSKESLKNSATEAAKPAKPDEKGEMQVVPVLVHLLSAISSVRLYIPKDLRPVDNRQSVLKSIQEVQKRFPDGIPLLDPIDDMGIQD
Q: With B1 as the binder, how does the Kd read?
A: 1000 nM
